“Also recorded” adds a separate entry of the source.
Columns and labels:
[1] = target: Aβ40WT (Homo sapiens, UniProt P05067); test: Affinity chromatography of human brain homogenate on Aβ40WT column; assay type: binding
Procedure: (§1) For some embodiments of the invention, it may be advantageous to work with purified isolates of mutant and wild-type forms of Aβ. The affinity chromatography method used in the development of embodiments of the instant invention to obtain such isolates is exemplary: To prepare affinity resins, biotinylated wild-type Aβ40 peptide (Aβ40WT) and Aβ40DI were each redissolved in 20 mM NaHCO3 buffer (pH 8.5) and applied to ImmunoPure immobilized streptavidin beads (Pierce) following the manufacturer's instructions. Immobilized ligands were cross-linked with 2 mM bis(sulfosuccinimidyl) suberate (Pierce) for 30 min with rocking at room temperature in 20 mM NaHCO3 (pH 8.5). Crosslinking reactions were stopped by the addition of 1 M Tris-HCl (pH 7.4) to a final concentration of 20 mM. Homogenates of normal human brain frontal cortex (which may obtained as biopsies) were prepared in Tris-buffered saline (50 mM Tris-HCl and 200 mM NaCl (pH 7.4)) containing complete protease inhibitor cocktail (Roche). Homogenates were centrifuged at 12,000×g for 30 min, and supernatants were loaded onto Tris-buffered saline-equilibrated affinity columns (0.8×4 cm) under gravity flow. […] Fractions were analyzed by SDS-PAGE on 10-20% Tris/glycine gradient gels. […]

[2] = target: T1, Aβ40DI (Homo sapiens, UniProt P05067, D694N/E693Q); test: Affinity chromatography of human brain homogenate on Aβ40DI column; assay type: binding
Procedure: as §1

[3] = target: T1, Aβ40DI; test: Thioflavin T fluorescence assay of Aβ40DI fibril formation; assay type: biochemical; conditions: 12.5 μM Aβ40DI, 1.56 μM protein, PBS, 37° C.
Procedure: FIG. 16 Thioflavin T analysis of inhibition of CAA mutant Aβ fibril formation by MBP. Aβ40DI at a concentration of 12.5 μM in PBS in the absence (□) or presence of 1.56 μM MBP(□) or bovine a-lactalbumin (Lalb; □) as a control. At specific time points, aliquots were collected from each sample and analyzed by thioflavin T binding and fluorescence to determine fibrillar assembly. Data represent the means±S.D. of triplicate samples. A.U., arbitrary units.
The Aβ B binding properties of the exemplary fragments of MBP described herein were determined in a thioflavin T fluorescence assay as follows: Lyophilized Aβ peptides were first resuspended with Me2SO to 2.5 mM, diluted to 12.5 μM in PBS, and then incubated at 37° C. with rocking either alone or with 1.56 μM MBP or bovine α-lactalbumin. Control samples containing 0.5% Me2SO and 1.56 μM MBP or lactalbumin in PBS were also included. At each time point, 100 μl samples of each reaction were placed in a 96-well microplate in triplicate, and 5 μl of 100 µM thioflavin T was added. The plate was mixed and incubated at 22° C. in the dark for 10 min. Fluorescence was measured at 490 nm with an excitation wavelength of 446 nm in a SpectraMax spectrofluorometer (Molecular Devices, Sunnyvale, Calif.) using SoftMax Pro control software. It is apparent that the method enables persons of skill in the art to determine the binding properties of MBP, variants thereof, and fragments thereof for any Aβ-peptide, including mutants thereof.

[4] = target: T1, Aβ40DI; test: Quantitative immunoblot analysis of Aβ40DI fibril assembly; assay type: biochemical; conditions: 12.5 μM Aβ40DI, 1.56 μM MBP, up to 12 h
Procedure: Aβ40DI (12.5 μM) was incubated in the absence (A and D) or presence (C and F) of 1.56 […] purified MBP. Bovine a-lactalbumin (Lalb. 1.56 μM) was included as a negative control (B and E). Aliquots were removed at specific time points and analyzed by quantitative immunoblot analysis using anti-Aβ mAb 6E10. […] Data represent the means±S.D. of three separate experiments.
Briefly, samples were heated at 90° C. for 5 min in reducing SDS-PAGE loading buffer, loaded onto gels, and electrophoresed. Gels were transferred to Hybond ECL nitrocellulose membranes (Amersham Biosciences) at 50 V overnight at 4° C. Membranes were blocked in PBS containing 5% milk or bovine serum albumin (BSA; used with biotinylated primary antibodies) at room temperature for 1 h and washed 3×10 min with PBS and 0.05% Tween 20. Membranes were incubated with primary antibodies for 1 h and washed as described above. Next, the membranes were incubated with either horseradish peroxidase-conjugated sheep anti-mouse IgG or horseradish peroxidase-conjugated streptavidin (both from Amersham Biosciences) for 1 h and washed. Detection was accomplished using ECL Western blotting substrate (Pierce), and images were captured either on film or using a VersaDoc 3000 imaging system (Bio-Rad) and quantitated with the manufacturer's Quantity One software.

[5] = target: Aβ42WT (Homo sapiens, UniProt P05067); test: Co-immunoprecipitation of MBP with Aβ42WT; assay type: binding
Procedure: AP peptides were resuspended in Me2SO to 2.5 mM and used at 10.8 μM. MBP was used at 1.56 μM. Proteins were combined in 250 μl of incubation buffer (PBS, 0.05% Tween 20, and 1% BSA). Anti-MBP mAb 382 was added to each sample mixture and incubated for 1 h at 4° C. with rocking. After incubation, 20 μl of washed GammaBind protein G-Sepharose beads (Amersham Biosciences) were added to each mixture, followed by incubation for an additional 1 h at 4° C. with rocking. Beads were separated by centrifugation at 8000×g for 2 min. Supernatants were removed, and beads were washed with 1 ml of incubation buffer. Separation and washing were repeated three times. A final wash was performed in PBS and 0.05% Tween 20 to remove excess BSA. Centrifuged beads were combined with 25 μl of reducing SDS-PAGE loading buffer and heated as described above. 10 μl of each sample/loading buffer mixture was loaded onto 10-20% Tricine gels (Invitrogen) and electrophoresed at 125 V for 35 min. Immunoblotting was carried out as described above using either biotinylated anti-MBP mAb 384 or biotinylated anti-Aβ mAb 3D6 as primary antibody. Experiments were performed in triplicate.

B1: myelin basic protein (protein)
chain: ASQKRPSQRHGSKYLATASTMDHARHGFLPRHRDTGILDSIGRFFGGDRGAPKRGSGKDSHHPARTAHYGSLPQKSHGRTQDENPVVHFFKNIVTPRTPPPSQGKGRGLSLSRFSWGAEGQRPGFGYGGRASDYKSAHKGFKGVDAQGTLSKIFKLGGRDSRSGSPMARR
notes: myelin basic protein, major form about 18.5 Kd (170 residues); purified protein
capture on Aβ40WT affinity column [1]: not captured
capture on Aβ40DI affinity column [2]: captured; also recorded: preferentially binds
inhibition of Aβ40DI fibril assembly (thioflavin T) [3]: completely inhibits; also recorded: inhibit
accumulation of high molecular mass species of Aβ40DI [4]: allows no high molecular mass species of Aβ40DI to accumulate
interaction in co-immunoprecipitation [5]: interacts

— US9217013B2, “Treatment of amyloidoses using myelin basic protein and fragments thereof” (The Research Foundation for the State University of New York, priority 2008, dated 2015)
